Data taken from patent publication US20130022605A1 (published 2013).

T1: TNF receptor 1 Fc fusion protein (R&D Systems) (human, UniProt P19438 30-211, limits assumed)
T1 construct: bought; also called recombinant TNF receptor 1 (p55); TNFR1-Fc; not shown: Fc part of the bought fusion protein; not described
T1 sequence: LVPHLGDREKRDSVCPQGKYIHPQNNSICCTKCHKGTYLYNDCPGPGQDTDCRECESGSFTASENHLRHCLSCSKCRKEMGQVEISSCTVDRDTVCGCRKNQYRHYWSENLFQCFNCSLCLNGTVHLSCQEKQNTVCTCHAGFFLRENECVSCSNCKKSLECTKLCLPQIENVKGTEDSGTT

T2: human TNFR1 on HeLa cells (human, UniProt P19438 30-455)
T2 sequence (looked up): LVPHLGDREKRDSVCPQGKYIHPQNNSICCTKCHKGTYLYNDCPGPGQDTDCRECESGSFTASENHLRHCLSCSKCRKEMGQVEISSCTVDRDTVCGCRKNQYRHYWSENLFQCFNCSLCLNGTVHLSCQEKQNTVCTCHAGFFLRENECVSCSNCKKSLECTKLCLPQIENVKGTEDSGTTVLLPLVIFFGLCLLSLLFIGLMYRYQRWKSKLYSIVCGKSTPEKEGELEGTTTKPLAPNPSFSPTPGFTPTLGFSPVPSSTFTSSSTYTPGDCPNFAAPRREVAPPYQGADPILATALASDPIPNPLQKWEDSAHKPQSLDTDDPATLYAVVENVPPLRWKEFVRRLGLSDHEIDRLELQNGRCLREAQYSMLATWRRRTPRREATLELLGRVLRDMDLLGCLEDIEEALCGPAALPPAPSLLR

B1: TAR2h-10 (other)
chain: EVQLLESGGGLVQPGGSLRLSCAASGFTFEWYWMGWVRQAPGKGLEWVSAISGSGGSTYYADSVKGRFTISRDNSKNTLYLQMNSLRAEDTAVYYCAKVKLGGGPNFDYWGQGTLVTVSS
notes: anti-human TNFR1 dAb; tied to the entry under the name TAR2-10; also called TAR2-10
B2: TAR2h-10-1 (other)
chain: EVQLLESGGGLVQPGGSLRLSCAASGFTFEWYWMGWVRQAPGKGLEWVSAISGSGGSTYYADSVKGRFTISRDNSKNTLYLQMNNLRAEDTAVYYCAKVKLGGGPNFDYRGQGTLVTVSS
notes: anti-human TNFR1 dAb
B3: TAR2h-10-3 (other)
chain: EVQLLESGGGLVQPGGSLRLTCAASGFTFEWYWMGWVRQAPGKGLEWVSAISGSGGSTYYADSVKGRFTISRDNSKNTLYLQMNSLRAEDTAVYYCAKVKLGGGPNFDYWGQGTLVTVSS
notes: anti-human TNFR1 dAb
B4: TAR2h-10-4 (other)
chain: EVQLLESGGGLVQPGGSLRLSCAASGFTFEWYWMGWIRQAPGKGLEWVSAISGSGGSTYYADSVKGRFTISRDNSKNTLYLQMNSLRAEDTAVYYCAKVKLGGGPNFDYWGQGTLVTVSS
notes: anti-human TNFR1 dAb
B5: TAR2h-12 (other)
chain: EVQLLESGGGLVQPGGSLRLSCAASGFTFVAYNMGWVRQAPGKGLEWVSFIDMYGAKTYYADSVKGRFTISRDNSKNTLYLQMNSLRAEDTAVYYCAKLCLMDCSGDIFDYWGQGTLVTVSS
B6: TAR2h-13 (other)
chain: EVQLLESGGGLVQPGGSLRLSCAASGFTFPADEMYWVRQAPGKGLEWVSSIGWPGGATYYADSVKGRFTISRDNSKNTLYLQMNSLRAEDTAVYYCAKYGRNFDYWGQGTLVTVSS
B7: TAR2h-14 (other)
chain: EVQLLESGGGLVQPGGSLRLSCAASGFTFDQYDMSWVRQAPGKGLEWVSLIDPSGGHTYYADSVKGRFTISRNNSKNTLYLQMNSLRAEDTAVYYCAKPVFSDWPAVEFDYWGQGTLVTVSS
notes: anti-human TNFR1 dAb
B8: TAR2h-16 (other)
chain: EVQLLESGGGLVQPGGSLRLSCAASGFTFGNYDMQWVRQAPGKGLEWVSSIDGTGGTTYYADSVKGRFTISRDNSKNTLYLQMNSLRAEDTAVYYCAQETNAFDYWGQGTLVTVSS
notes: anti-human TNFR1 dAb
B9: TAR2h-18 (other)
chain: EVQLLESGGGLVQPGGSLRLSCAASGFTFADYNMTWVRQAPGKGLEWVSWIDQEGVFTYYADSVKGRFTISRDNSKNTLYLQMNSLRAEDTAVYYCAKDFSAAVMLRTSFDYWGQGTLVTVSS
B10: TAR2h-22 (other)
chain: EVQLLESGGGLVQPGGSLRLSCAASGFTFGEYNMAWVRQAPGKGQEWVSFISTGGHVTYYADSVKGRFTISRDNSKNTLYLQMNSLRAEDTAVYYCAKFSVRFRSSIFDYWGQGTLVTVSS
notes: anti-human TNFR1 dAb
B11: TAR2h-27 (other)
chain: EVQLLESGGGLVQPGGSLRLSCAASGFTFTDYNMAWVRQAPGKGLEWVSFISQEGHHTYYADSVKGRFTISRDNSKNTLYLQMNSLRAEDTAVYYCAKFSTIATLSLFDYWGQGTLVTVSS
notes: anti-human TNFR1 dAb
B12: TAR2h-29 (other)
chain: EVQLLESGGGLVQPGGSLRLSCAASGFTFATYNMGWVRQAPGKGLEWVSSIAWLGSETYYADSVKGRFTISRDNSKNTLYLQMNSLRAEDTAVYYCAKHCKAECTGDLFDYWGQGTLVTVSS
notes: anti-human TNFR1 dAb
B13: TAR2h-35 (other)
chain: EVQLLESGGGLVQPGGSLRLSCAASGFTFDAYNMFWVRQAPGKGLEWVSAISPSGRETYYADSVKGRFTISRDNSKNTLYLQMNSLRAEDTAVYYCAKRYPDFDYWGQGTLVTVSS
B14: TAR2h-41 (other)
chain: EVQLLESGGGLVQPGGSLRLSCAASGFTFDKYQMGWVRQAPGKGLEWVSFIDSNGHHTYYADSVKGRFTISRDNSKNTLYLQMNSLRAEDTAVYYCAELDNLSITPFDYWGQGTLVTVSS
notes: anti-human TNFR1 dAb
B15: TAR2h-42 (other)
chain: EVQLLESGGGLVQPGGSLRLSCAASGFTFAKYNMYWVRQAPGKGLEWVSAISPKGQHTYYADSVKGRFTISRDNSKNTLYLQMNSLRAEDTAVYYCAEGMGSDAITFDYWGQGTLVTVSS
notes: anti-human TNFR1 dAb
B16: TAR2h-67 (other)
chain: EVQLLESGGGLVQPGGSLRLSCAASGFTFEDYPMAWVRQAPGKGLEWVSFIGLKGIHTYYADSVKGRFTISRDNSKNTLYLQMNSLRAEDTAVYYCAKDLNNFDYWGQGTLVTVSS
B17: TAR2h-10-7 (other)
chain: EVQLLESGGGLVQPGGSLRLSCAASGFTFEWYWMGWVRQAPGKGLEWVSAISGSGGSTYYADSVKGRFTISRDNSKNTLYLQMNSLRAKDTAVYYCAKVKLGGGPNFDYRGQGTLVTVSS
B18: TAR2h-10-55 (other)
chain: EVQLLESGGGLVQPGGSLRLSCAASGFPFEWYWMGWVRQAPGKGLEWVSAISGSGDSTYYADSVKGRFTISRDNSKNTLYQQMNSLRAEDAAVYYCAKVKLGGGPNFGYRGQGTLVTVSS
B19: TAR2h-15 (other)
chain: EVRLLESGGGLVQPGGSLRLSCAASGFTFGKYTMTWVRQAPGKGLEWVSHISDDGNSTYYADSVKGRFTISRDNSKNTLYLQMNSLRAEDTAVYYCAKVPILAPRNLFDYWGQGTLVTVSS
notes: anti-human TNFR1 dAb
B20: TAR2h-17 (other)
chain: EVQLLESGGGLVQPGGSLRLSCAASGFTFGGYQMGWVRQAPGKGLEWVSFIDFTGAHTYYADSVKGRFTISRDNSKNTLYLQMNSLRAEDTAVYYCAKLSDDLTLPERFPFDYWGQGTLVTVSS
notes: anti-human TNFR1 dAb
B21: TAR2h-34 (other)
chain: EVQLLESGGGLVQPGGSLRLSCAASGFTFPEYGMAWVRQAPGKGLEWVSTISHGGEHTYYADSVKGRFTISRDNSKNTLYLQMNSLRAEDTAVYYCAQHPVSHPKFDYWGQGTLVTVSS
notes: anti-human TNFR1 dAb
B22: TAR2h-47 (other)
chain: EVQLLESGGGLVQPGGSLRLSCAASGFTFPVYNMAWVRQAPGKGLEWVSFIAGNGQQTYYADSVKGRFTISRDNSKNTLYLQMNSLRAEDTAVYYCAKFASKVSPMSLTDFDYWGQGTLVTVSS
notes: anti-human TNFR1 dAb
B23: TAR2h-51 (other)
chain: EVQLLESGGGLVQPGGSLRLSCAASGFTFATYNMSWVRQAPGKGLEWVSAIDAGGMHTYYADSVKGRFTISRDNSKNTLYLQMNSLRAEDTAVYYCAKGTEPFDYWGQGTLVTVSS
notes: anti-human TNFR1 dAb

What was measured:
[1] = target: T1, TNF receptor 1 Fc fusion protein (R&D …); assay: receptor binding assay
[2] = target: T2, human TNFR1 on HeLa cells; assay: cell-based or functional assay

Row | Binder | IC50 [1] [nM] | HeLa IL-8 Cell Assay, Activity (IC50) [2] [nM]
1 | B1 | 30 | 50
2 | B2 | 10 | 
3 | B3 | 11 | 
4 | B4 | 8 | 
5 | B5 |  | 100
6 | B6 |  | 300
7 | B7 | 30 | 300
8 | B8 | 30 | 200
9 | B9 |  | 400
10 | B10 | 200 | 
11 | B11 | 30 | 3000
12 | B12 | 300 | 300
13 | B13 |  | 800
14 | B14 | 8 | 30
15 | B15 | 15 | 10
16 | B16 |  | 300
17 | B17 |  | 30
18 | B18 |  | 20
19 | B19 | 5 | 
20 | B20 | 100 | 
21 | B21 | 300 | 
22 | B22 | 8 | 
23 | B23 | 80 | 
